Data from the DeepSol protein solubility set.

Experiment: soluble on expression in E. coli; label from the status in PepcDB or PDB records

Sequence | soluble on expression in E. coli
MEDFFSIGQIINTHGVRGELKIYPLTDDINRFDDLDSVYVDNEIKKVISVKKQPNKLILKLEGIDTLDEAVKYKNKYIKVLREDAVELKEGQYFIKDIIGCNVFDENDKDLGEVYDVISTKNNDVYCIRKEGQQDILVPALKDIVLKIEIENKKIVIKAVEEWLESLEHHHHHH | soluble
MEDIKSLLLQCPVLAGLPVEGINEAVQIVRARHFDEKALICSKGAQHSSLMVIAKGSVRVNSISSKGKEVTLMIFETGGWFGDNVFSPGMPRIFGATAHTDVTLLELPGDKFRQLLAKYPQSYPVILDLLSRRLWSAISVIEDDAIRGIEERIGRRLLLLAEYQHNRPISAQSCVVKVTREHIANMMGLTRQSVHKVLKKLENSNVLRLQYGSITILNPLKMEAYLKQLE | not soluble
MEDKATQTPEQTFSMEAALQETEARLEKRVRPGQILTGKVVLVGSEGVAVDIGAKTEGIIPFNQLTTKPLSEEELRNLLSPGDEVKVQVLRVDPETGQILLSRKKIEAQEKWDRIQELYEKGEPVTVTIKERVKGGVVAELDGVQGFMPASQLDLRRVPNLDEFVGQQVLAKIIEFHRRKGRVILSRRAVLEEEQKKAREAFLKSLEPGQVVEGTVVEVTDFGVFVNLGPVDGLVHRSEITWGRFNHPREVIQKGQKVKAQVLSVDPEKERVNLSIKALIPDPWTTVAEKYPVGTRVRGKVVGLTQFGAFVEVEPGLEGLIHISELSWTKRPKHPSEVVKEGDEVEAVVLRLDPEERRLSLGLKQTQPDPWQQLTEKYPPGTVLKGKVTGVTDFGVFVEIEPGIEGLVHVSELDHKRVENPAALFKKGDEMEVVVLNIDPVEQRVSLSRKRLLPPPLPQEEERPRRARSGKERARRKGAPRREDRREYEYGAVAEYNLYDASSVPTTTATVKLGDLYGDLLASLGLEEEAEEKSRG | soluble
MEDKPTILIMGGSLGLGNIEDIVEMVCHICDESYQIIVVTGKNKTLKKSLEERNFGRKVVVFGFISFIDKLMAISDILITKPGGLTCAEALSCKLPMILISPIPGQEERNTFYLINNGAAAYVKNIESFDIVFNQIINNPQRLEHMKLACSFLAKPLEHHHHHH | not soluble
MEDLDALWERYREAVRAGGNPQALYQEMVWPALLALWREKPRVYPFPQAFAVSVHTLGTSPEATALAILGAGAERVYVLHTPESARFLPRLRQDTGKDLYPVEIGKSDVEAIYREVKRLLEKHPEVPVALDLTSGTKAMSAGLAAAGFFFQRFYPKVRVVYVDNEDYDPELRRPRAGTEKLRILPNPHEALAEVDALFAKELYGKGEFGQAAAYFRGMVGRTGNQAYALYALLAEMYRAWRALDFGEALKAGRKLLGQLSQNVWLNHPLNARREALEAQVALLEAVDRFLKARDFALKEGVYGLARTLLHLAQEAKEEAAVLAALYAYRALELLLQERLALLGRRAEAPGLSPEEAEALRKALAELLGVLPEEVRLPAKLGLLDLLAFLRLKGDEALGRLSLAELRGLAGALKGRNSALLVHGFDVPSPKAVEGIARLAQGLLQDLEARTALGPLSPEPVPLGF | soluble
MEDRNNIYFFYKHTKSMQEAVEPLKQLATSQGLNVVDDVQKANIIVSVGGNNAFLQATRKTNFRSDCLYVGVSTDREGFYPDFTINEIDKMFEAFENQNIEVKRLSTLEVTIDDEKPFYCLNECSIRSNVIKTFVLEVFIDDMHFETFRGDGMIVSTPTGSTAYNKSVRGAVVDPRLPSLQVSEIASLNNNTYRTLGTSFLLSGDRTLRLKVVQDGNDFPIIGADNEALSIRHAEDIKIRLSDKQVKVLKLKDNTFWHKVQRNFLLEHHHHHH | soluble
